In publication PMC6251370:

Target: recombinant N-terminal SH3 domain (SH3N) of CRKL with a C-terminal hexahistidine tag (human)
Assay: dynamic mass redistribution

- Kd: 7.38 µM
B1: peptide corresponding to the second PXXPXK motif of SASH1 (aa982–991) (peptide)
peptide: QPPPVPAKKS
